In patent US12685772B2, “Methods for treating CAPRIN-1 expressing cancers” (TORAY INDUSTRIES, INC., priority 2020, dated 2026):

Target: T1, CAPRIN-1 protein (Homo sapiens, UniProt Q14444)
T1 construct: made in house
T1 sequence (Q14444 1-709): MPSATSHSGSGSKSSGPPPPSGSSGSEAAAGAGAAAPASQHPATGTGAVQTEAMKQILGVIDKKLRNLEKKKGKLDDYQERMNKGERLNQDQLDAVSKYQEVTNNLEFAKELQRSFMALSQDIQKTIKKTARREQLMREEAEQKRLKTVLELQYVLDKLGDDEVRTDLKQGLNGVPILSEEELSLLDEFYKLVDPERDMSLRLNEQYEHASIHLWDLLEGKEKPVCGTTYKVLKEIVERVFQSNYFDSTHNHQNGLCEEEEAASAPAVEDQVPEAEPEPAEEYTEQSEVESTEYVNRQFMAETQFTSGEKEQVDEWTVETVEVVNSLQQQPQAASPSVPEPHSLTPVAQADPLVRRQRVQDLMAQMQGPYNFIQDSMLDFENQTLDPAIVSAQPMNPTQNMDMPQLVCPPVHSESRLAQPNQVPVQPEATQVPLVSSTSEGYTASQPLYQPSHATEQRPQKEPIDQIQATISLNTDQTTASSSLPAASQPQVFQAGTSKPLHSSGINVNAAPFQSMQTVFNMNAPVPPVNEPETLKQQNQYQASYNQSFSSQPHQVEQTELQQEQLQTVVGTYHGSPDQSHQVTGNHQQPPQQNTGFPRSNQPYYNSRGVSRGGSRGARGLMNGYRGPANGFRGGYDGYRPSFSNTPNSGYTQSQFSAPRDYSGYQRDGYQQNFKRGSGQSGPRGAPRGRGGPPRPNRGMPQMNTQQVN
Assay: ELISA using CAPRIN-1 protein immobilized on a plate
Assay type: binding
Procedure: One hundred (100) μg of a human CAPRIN-1 recombinant protein produced according to Example 3 of WO2010/016526 was mixed with a MPL+TDM adjuvant (Sigma) in an amount equivalent to that of the recombinant protein. The mixture was used as an antigen solution per mouse. The antigen solution was administered intraperitoneally to 6-week-old Balb/c mice (Japan SLC Inc.) and then further administered 3 times […] every week for completion of immunization. A spleen was removed on day 3 after the final immunization and then ground between two sterilized glass slides. Spleen cells were obtained by washing with PBS (−) (Nissui Pharmatheutical), centrifuging at 1500 rpm for 10 minutes, and removing supernatant, therein these were repeated 3 times. The obtained spleen cells were mixed with mouse myeloma cell SP2/0 (purchased from ATCC) at a ratio of 10:1. The PEG solution prepared by mixing 200 μl of RPMI1640 medium containing 10% FBS heated at 37° C. and 800 μl of PEG1500 (Boehringer) was added to the cells. The solution was incubated for 5 minutes for cell fusion. Centrifugation was performed at 1700 rpm for 5 minutes to remove supernatants. […] Absorbance at 450 nm and absorbance at 595 nm were measured using an absorption spectrometer. As a result, a plurality of hybridomas producing antibodies with high absorbances were selected. […]

B1: monoclonal antibody against CAPRIN-1 described in WO2013/125630: mouse monoclonal antibody with heavy-chain variable region SEQ ID NO: 114 and light-chain variable region SEQ ID NO: 115 (antibody, listed as Mus musculus, V domains shown)
VH: GPELVKPGASVKMSCKASGYTFTSYVMHWVKQKPGQGLEWIGYINPYNDGTKYNEKFKGKATLTSDKSSSTAYMELSSLTSEDSAVYYCARRYYYGSSGGYFDVWAQDHVRT
VL: DVQITQSPSYLAASPGETITINCRASKSISKYLAWYQEKPGKTNKLLIYSGSTLQSGIPSRFSGSGSGTDFTLTISSLEPEDFAMYYCQQHNEYPYTFGGGTKLEIKR
specific reactivity to CAPRIN-1 protein: exhibiting reactivity
